Assays:
[1] = target: MPXV Bio-M2 (site-specifically biotinylated MPXV Avi-M2) (monkeypox virus (Clade I), UniProt Q8V554 18-220); assay: BLI; […] (10 ug/mL) […]; 10 mM HEPES pH 7.4, 150 mM NaCl, 3 mM EDTA, 1% BSA; 1:1 Langmuir model, […]; conditions: both partners purified
[2] = target: T1, MPXV M2 (monkeypox virus M2 protein), His-tagged, wild type (monkeypox virus (Clade I), UniProt Q8V554 18-220); assay: BLI; […] (10 ug/mL) […]; 10 mM HEPES pH 7.4, 150 mM NaCl, 3 mM EDTA, 0.05% Tween, 1% BSA; 25 °C; 1:1 model; […]; conditions: both partners purified
T1 construct: copies: 6 or 7

B1: human B7.2 ectodomain, His-tagged (domain or fragment)
chain: LKIQAYFNETADLPCQFANSQNQSLSELVVFWQDQENLVLNEVYLGKEKFDSVHSKYMGRTSFDSDSWTLRLHNLQIKDKGLYQCIIHHKKPTGMIRIHQMNSELSVLANFSQPEIVPISNITENVYINLTCSSIHGYPEPKKMSVLLRTKNSTIEYDGVMQKSQDNVTELYDVSISLSVSFPDVTSNMTIFCILETDKTRLLSSPFSIELED
notes: also called hB7.2; CD86
- Kd [1]: 388 nM
- t1/2 (dissociation half-life time) [1]: 0.345 min

B2: human B7.2 ectodomain fused to human Fc (Fc fusion)
chain: LKIQAYFNETADLPCQFANSQNQSLSELVVFWQDQENLVLNEVYLGKEKFDSVHSKYMGRTSFDSDSWTLRLHNLQIKDKGLYQCIIHHKKPTGMIRIHQMNSELSVLANFSQPEIVPISNITENVYINLTCSSIHGYPEPKKMSVLLRTKNSTIEYDGVMQKSQDNVTELYDVSISLSVSFPDVTSNMTIFCILETDKTRLLSSPFSIELED
notes: also called hB7.2-Fc; hB7.2-hFc; not shown: Fc (human), C-terminal, kept
- Kd [2]: 0.05 nM

B3: human B7.1 ectodomain, His-tagged (domain or fragment)
chain: VIHVTKEVKEVATLSCGHNVSVEELAQTRIYWQKEKKMVLTMMSGDMNIWPEYKNRTIFDITNNLSIVILALRPSDEGTYECVVLKYEKDAFKREHLAEVTLSVKADFPTPSISDFEIPTSNIRRIICSTSGGFPEPHLSWLENGEELNAINTTVSQDPETELYAVSSKLDFNMTTNHSFMCLIKYGHLRVNQTFNWNTT
notes: also called hB7.1; CD80
- Kd [1]: 95.3 nM
- t1/2 (dissociation half-life time) [1]: 1.71 min

B4: human B7.1 ectodomain fused to human Fc (Fc fusion, UniProt P33681-1 35-234, looked up)
chain: VIHVTKEVKEVATLSCGHNVSVEELAQTRIYWQKEKKMVLTMMSGDMNIWPEYKNRTIFDITNNLSIVILALRPSDEGTYECVVLKYEKDAFKREHLAEVTLSVKADFPTPSISDFEIPTSNIRRIICSTSGGFPEPHLSWLENGEELNAINTTVSQDPETELYAVSSKLDFNMTTNHSFMCLIKYGHLRVNQTFNWNTT
notes: also called hB7.1-Fc; hB7.1-hFc; not shown: Fc (human), C-terminal, kept
- Kd [2]: 0.15 nM

Reference: PMC10457294 (Nature Communications, 2023)
